Each binder was assayed against biotinylated human DLL3 protein expressed as a human IgG1 fusion protein (human) (UniProt Q9NYJ7) (assay: Octet BLI; biotinylated huDLL3-IgG1 fusion on streptavidin tips; single 50 nM; conditioned medium).
biotinylated human DLL3 protein expressed as a human IgG1 fusion protein (human), sequence (Q9NYJ7 other isoform, or with tags, fused parts or gaps): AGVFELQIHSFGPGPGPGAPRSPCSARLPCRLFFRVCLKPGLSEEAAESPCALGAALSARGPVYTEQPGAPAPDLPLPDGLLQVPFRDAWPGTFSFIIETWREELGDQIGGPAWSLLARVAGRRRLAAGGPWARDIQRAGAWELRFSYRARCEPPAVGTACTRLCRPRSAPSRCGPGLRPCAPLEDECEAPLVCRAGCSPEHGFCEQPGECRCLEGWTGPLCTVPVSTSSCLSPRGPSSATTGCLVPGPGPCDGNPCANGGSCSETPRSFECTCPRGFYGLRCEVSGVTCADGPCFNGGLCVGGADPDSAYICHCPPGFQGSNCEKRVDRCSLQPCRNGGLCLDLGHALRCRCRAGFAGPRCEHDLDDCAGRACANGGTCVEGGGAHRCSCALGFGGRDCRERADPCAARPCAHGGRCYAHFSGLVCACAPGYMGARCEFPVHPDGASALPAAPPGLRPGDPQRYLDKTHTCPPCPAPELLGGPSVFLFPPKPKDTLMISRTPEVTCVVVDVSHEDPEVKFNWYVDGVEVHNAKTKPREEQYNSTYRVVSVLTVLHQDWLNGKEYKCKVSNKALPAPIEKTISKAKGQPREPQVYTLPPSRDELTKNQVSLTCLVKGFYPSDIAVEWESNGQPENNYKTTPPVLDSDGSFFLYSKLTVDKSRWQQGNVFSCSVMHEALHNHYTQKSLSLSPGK

Binder | Kd [nM]
anti-DLL3 trispecific protein 2C010 (protein, part only; not given: CD3 binder and albumin binder, part only) chain, part: EVQLVESGGGLVQPGGSLTLSCVASGSTSKINAMGWYRRAPGKQRELVAGISSDRSKVYADSVKGRFTISRDNAKNSVYLQMNSLRAEDTAVYYCYYFRTVAGSSMRYWGQGTLVTVSSGGGGSGGGSGGGGSGGGSHHHHHH | 7.6
anti-DLL3 trispecific protein 2F07 (protein, part only; not given: anti-CD3 fragment and anti-albumin domain, part only) chain, part: EVQLVESGGGLVQPGGSLTLSCVASGSTSSINAVGWYRRAPGKQRELVAGISSDGSSVYADSVKGRFTISRDNAKNSVYLQMNSLRAEDTAVYYCYYFRTVSTSSMRYWGQGTLVTVSSGGGGSGGGSGGGGSGGGSHHHHHH | 8
anti-DLL3 trispecific protein 2A08 (protein, part only; not given: anti-CD3 and anti-albumin domains, part only) chain, part: EVQLVESGGGLVQPGGSLTLSCVASGSTKSINAMGWYRRAPGKQRELVAGISSDGSKVYRDSVKGRFTISRDNAKNSVYLQMNSLRAEDTAVYYCYYFRTSSGSSMRYWGQGTLVTVSSGGGGSGGGSGGGGSGGGSHHHHHH | 7.7
anti-DLL3 trispecific protein 1B05 (protein, part only; not given: CD3 binder and albumin binder, part only) chain, part: EVQLVESGGGLVQPGGSLTLSCVASGSTSSINAMAWYRRAPGKQRELVAGISSDGSKVYADSVKGRFTISRDNAKNSVYLQMNSLRAEDTAVYYCYYYRTVSGSSMRYWGQGTLVTVSSGGGGSGGGSGGGGSGGGSHHHHHH | 8
anti-DLL3 trispecific protein 1E04 (protein, part only; not given: anti-CD3 fragment and anti-albumin sdAb, part only) chain, part: EVQLVESGGGLVQPGGSLTLSCVASGSTSRINGMGWYRRAPGKQRELPAGISSDGSKAYADSVKGRFTISRDNAKNSVYLQMNSLRAEDTAVYYCYYFRTASGTSMRYWGQGTLVTVSSGGGGSGGGSGGGGSGGGSHHHHHH | 8.1
anti-DLL3 trispecific protein 2A03 (protein, part only; not given: CD3 fragment and albumin sdAb, part only) chain, part: EVQLVESGGGLVQPGGSLTLSCVASGTTSSINAMGWYRRAPGKQRELVAGISSDGSKVYGDSVKGRFTISRDNAKNSVYLQMNSLRAEDTAVYYCYYFRTVSGSAMRYWGQGTLVTVSSGGGGSGGGSGGGGSGGGSHHHHHH | 8.2
anti-DLL3 trispecific protein 1C04 (protein, part only; not given: anti-CD3 fragment and anti-albumin sdAb, part only) chain, part: EVQLVESGGGLVQPGGSLTLSCVASGNTSSINAMAWYRRAPGKQRELVAGISSDGSKVYADSVKGRFTISRDNAKNSVYLQMNSLRAEDTAVYYCYYFRTVSGSSMRYWGQGTLVTVSSGGGGSGGGSGGGGSGGGSHHHHHH | 8.1
anti-DLL3 trispecific protein 1A04 (protein, part only; not given: anti-CD3 fragment and anti-albumin sdAb, part only) chain, part: EVQLVESGGGLVQPGGSLTLSCVASGSTSSINAMGWYRRAPGKQRELVAGISSDGSKVYEDSVKGRFTISRDNAKNSVYLQMNSLRAEDTAVYYCYYFRTVSGSSMRYWGQGTLVTVSSGGGGSGGGSGGGGSGGGSHHHHHH | 7.8
anti-DLL3 trispecific protein 2A01 (protein, part only; not given: anti-CD3 fragment and anti-albumin sdAb, part only) chain, part: EVQLVESGGGLVQPGGSLTLSCVASGSTSSINAMGWYRRAPGKQRELVAGISSDGSKVVADSVKGRFTISRDNAKNSVYLQMNSLRAEDTAVYYCYYFRTLSGSSMRYWGQGTLVTVSSGGGGSGGGSGGGGSGGGSHHHHHH | 8
anti-DLL3 trispecific protein 2H06 (protein, part only; not given: anti-CD3 fragment and anti-albumin domain, part only) chain, part: EVQLVESGGGLVQPGGSLTLSCVASGSTSTINAMGWYRRAPGKQRELVAGISSDGSKVYADSVKGRFTISRDNAKNSVYLQMNSLRAEDTAVYYCYYFRTASGSSMRYWGQGTLVTVSSGGGGSGGGSGGGGSGGGSHHHHHH | 7.9
anti-DLL3 trispecific protein 2B03 (protein, part only; not given: CD3 fragment and albumin sdAb, part only) chain, part: EVQLVESGGGLVQPGGSLTLSCVASGSTSSINAMGWYRRAPGKQRELVAGISSDGSLVYADSVKGRFTISRDNAKNSVYLQMNSLRAEDTAVYYCYYFTTVSGSSMRYWGQGTLVTVSSGGGGSGGGSGGGGSGGGSHHHHHH | 7.6
anti-DLL3 trispecific protein 2G09 (protein, part only; not given: CD3 fragment and albumin sdAb, part only) chain, part: EVQLVESGGGLVQPGGSLTLSCVASGSTSSINAMGWYRRAPGKQRELVAGVSSDGSKVYADSVKGRFTISRDNAKNSVYLQMNSLRAEDTAVYYCYYFRTVSGSSARYWGQGTLVTVSSGGGGSGGGSGGGGSGGGSHHHHHH | 8
anti-DLL3 trispecific protein 1C011 (protein, part only; not given: anti-CD3 fragment and anti-albumin domain, part only) chain, part: EVQLVESGGGLVQPGGSLTLSCVASGTTSSINAMGWYRRAPGKQRELVAGISSDGSKVYEDSVKGRFTISRDNAKNSVYLQMNSLRAEDTAVYYCYYFRTVSGSSMRYWGQGTLVTVSSGGGGSGGGSGGGGSGGGSHHHHHH | 7.6

The next lines start with the values.

Kd [nM] | Binder
7.5 | anti-DLL3 trispecific protein 4C07 (protein, part only; not given: anti-CD3 and anti-albumin domains, part only) chain, part: EVQLVESGGGLVQPGGSLTLSCAASGSKVSFLSMAWYRQAPGKKRELVAGISADGSKDYIDSVKGRFTISRDNAKNSVYLQMNSLRAEDTAVYYCYAYRWTTRLTYWGQGTLVTVSSGGGGSGGGSGGGGSGGGSHHHHHH
8.3 | anti-DLL3 trispecific protein 4C05 (protein, part only; not given: anti-CD3 and anti-albumin domains, part only) chain, part: EVQLVESGGGLVQPGGSLTLSCAASGSSVSNLSMAWYRQAPGKKRELVAGISADGSTAYIDSVKGRFTISRDNAKNSVYLQMNSLRAEDTAVYYCYAYRWTTRRTYWGQGTLVTVSSGGGGSGGGSGGGGSGGGSHHHHHH
7.5 | anti-DLL3 trispecific protein 3F05 (protein, part only; not given: CD3 binder and albumin binder, part only) chain, part: EVQLVESGGGLVQPGGSLTLSCAASGSKVSFLSMAWYRQAPGKKRELVAGISTDGSTDYIDSVKGRFTISRDNAKNSVYLQMNSLRAEDTAVYYCYAYRWTTRRTYWGQGTLVTVSSGGGGSGGGSGGGGSGGGSHHHHHH
7.8 | anti-DLL3 trispecific protein 3C09 (protein, part only; not given: anti-CD3 and anti-albumin domains, part only) chain, part: EVQLVESGGGLVQPGGSLTLSCAASGSSVSFLSMAWYRQAPGKKRELVAGISADGSTIYIDSVKGRFTISRDNAKNSVYLQMNSLRAEDTAVYYCYAYRWRTRYTYWGQGTLVTVSSGGGGSGGGSGGGGSGGGSHHHHHH
8 | anti-DLL3 trispecific protein 3H06 (protein, part only; not given: anti-CD3 and anti-albumin domains, part only) chain, part: EVQLVESGGGLVQPGGSLTLSCAASGSSVSQLSMAWYRQAPGKKRELVAGISADGSTDYFDSVKGRFTISRDNAKNSVYLQMNSLRAEDTAVYYCYAYRWTTRGTYWGQGTLVTVSSGGGGSGGGSGGGGSGGGSHHHHHH
8.2 | anti-DLL3 trispecific protein 4F011 (protein, part only; not given: anti-CD3 and anti-albumin domains, part only) chain, part: EVQLVESGGGLVQPGGSLTLSCAASGSKVSFLSMAWYRQAPGKKRELVAGISADGSKDYIDSVKGRFTISRDNAKNSVYLQMNSLRAEDTAVYYCYAYRWTTRYTYWGQGTLVTVSSGGGGSGGGSGGGGSGGGSHHHHHH
8.2 | anti-DLL3 trispecific protein 3C05 (protein, part only; not given: anti-CD3 and anti-albumin domains, part only) chain, part: EVQLVESGGGLVQPGGSLTLSCVASGTSVSFLSMAWYRQAPGKKRELVAGISADGSTTYIDSVKGRFTISRDNAKNSVYLQMNSLRAEDTAVYYCYAYRWTTRRTYWGQGTLVTVSSGGGGSGGGSGGGGSGGGSHHHHHH
7.6 | anti-DLL3 trispecific protein 4G08 (protein, part only; not given: anti-CD3 fragment and anti-albumin sdAb, part only) chain, part: EVQLVESGGGLVQPGGSLTLSCAASGSSVRFLSMAWYRQAPGKKRELVAGISTDGSTDYIDSVKGRFTISRDNAKNSVYLQMNSLRAEDTAVYYCYAYRWTTRYRYWGQGTLVTVSSGGGGSGGGSGGGGSGGGSHHHHHH
8.1 | anti-DLL3 trispecific protein 3A02 (protein, part only; not given: CD3 fragment and albumin sdAb, part only) chain, part: EVQLVESGGGLVQPGGSLTLSCAASGSSVSFLSLAWYRQAPGKKRELVAGISADGSTAYIDSVKGRFTISRDNAKNSVYLQMNSLRAEDTAVYYCYAYRWRTRYTYWGQGTLVTVSSGGGGSGGGSGGGGSGGGSHHHHHH
